Source: patent US8697655B2, “Method of selecting polypeptide sequence, and metal oxide or silicon-containing compound binding peptide and use thereof” (Riken, priority 2010, dated 2014)

Tests used:
[1] = Binding of P-EGFs to TiO2 plate, anti-EGF antibody chemiluminescence detection; conditions: about 2.0 ng, 10 μl in TBS pH 7.5; washed 3 times with TBS-T; anti-human EGF antibody and HRP secondary
Procedure: Subsequently, in accordance with a scheme in the left in FIG. 4-2, various P-EGF solutions (about 2.0 ng, 10 μl in TBS, pH 7.5) were added on a TiO2 plate (a plate produced by vapor deposition of titanium on the surface of a glass plate with a diameter of 15 mm and a thickness of 0.6 mm (manufactured by Matsunami Glass Ind., Ltd.) (the vapor deposition step was requested to Osaka Vacuum Industrial Co., Ltd.) was used); and a washing operation (TBS-T buffer, pH 7.5) was repeated 3 times. And, after blocking with 0.1% BSA solution, an anti-human EGF antibody was added as a primary antibody. Furthermore, after the washing operation (TBS-T buffer, pH 7.5) was repeated 3 times, an anti-mouse IgG antibody HRP conjugate was added as a secondary antibody. At the end, using a luminescent phenomenon by a reaction between a chemiluminescence reagent and HRP as an index, the presence of protein immobilized on the TiO2 plate was detected. […]
First, in accordance with a scheme in the left in FIG. 7-1, various P-EGF solutions (about 2.0 ng, 10 μl in TBS, pH 7.5) were added on a TiO2 plate and a washing operation (TBS-T buffer, pH 7.5) was repeated 3 times. […] At the end, using a luminescent phenomenon by a reaction between a chemiluminescence reagent and HRP as an index, the presence of protein immobilized on the TiO2 plate was detected.

NRK-49F fibroblasts = experiment: NRK-49F fibroblast proliferation on sTOP1-EGF immobilized TiO2 plate; assay type: cell-based; conditions: about 5.0 ng immobilized; ca. 5,000 cells seeded; 6 days; 1% FBS DMEM; vs TiO2 plate with EGF alone added
Procedure: First, in accordance with a scheme in the left in FIG. 7-2, sTOP1-EGF solution (about 5.0 ng, 12 μl in TBS, pH 7.5) was added onto the TiO2 plate and a washing operation (TBS-T buffer, pH 7.5) was then repeated 3 times. And, by blocking with 0.1% BSA solution, a “sTOP1-EGF immobilized TiO2 plate” was prepared. And then, ca. 5,000 NRK-49F fibroblasts were seeded on the sTOP1-EGF immobilized TiO2 plate, cultured for 6 days (1% FBS containing DMEM medium was used), and subjected to microscopy (cells were not stained).

B1: MQAYYNYYSNYYGRSYSSDGQLGQFEGNSDSECPLSHDGYCLHDGVCMYI EALDKYACNCVVGYIGERCQYRDLKWWELR (peptide)
chain: MQAYYNYYSNYYGRSYSSDGQLGQFEGNSDSECPLSHDGYCLHDGVCMYIEALDKYACNCVVGYIGERCQYRDLKWWELR
notes: chemically synthesized TOP1-EGF composed of 80 amino acids, made by peptide solid phase method
TiO2 plate binding (luminescent phenomenon of protein immobilized on the plate) [1]: the luminescent phenomenon could be confirmed | Proliferation of NRK-49F fibroblasts on the immobilized TiO2 plate (microscopy) (NRK-49F fibroblasts): markedly proliferated
